According to patent publication US20180282719A1 (published 2018):

How the values were obtained:
[1] = target: T1, recombinant soluble human IL-6 receptor (SR344) (human, UniProt P08887 20-344, biotinylated (sites not given) where immobilized via streptavidin or used in phage ELISA); assay: SPR Biacore T100, biotinylated SR344 on streptavidin chip (model of membrane IL-6 receptor), antibody 0.5 ug/mL as analyte, 37 C
T1 construct: also called soluble IL-6 receptor; membrane-type IL-6 receptor (when biotinylated and immobilized on the chip)
T1 sequence (looked up): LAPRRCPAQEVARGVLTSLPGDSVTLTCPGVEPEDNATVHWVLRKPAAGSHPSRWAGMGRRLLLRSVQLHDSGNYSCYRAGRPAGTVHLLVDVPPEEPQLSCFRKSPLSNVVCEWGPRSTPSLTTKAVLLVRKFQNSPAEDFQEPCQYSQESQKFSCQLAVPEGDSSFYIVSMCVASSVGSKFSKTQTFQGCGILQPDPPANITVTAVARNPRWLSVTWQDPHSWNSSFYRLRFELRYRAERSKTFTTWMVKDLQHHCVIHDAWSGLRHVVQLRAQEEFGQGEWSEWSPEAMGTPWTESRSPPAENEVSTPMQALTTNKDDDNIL
Description: (§1) The binding to membrane IL-6 receptor was evaluated by evaluating the binding to the IL-6 receptor immobilized onto a sensor chip. SR344 was biotinylated according to a method known to persons skilled in the art, and the biotinylated SR344 was immobilized on the sensor chip via streptavidin by utilizing the affinity between streptavidin and biotin. All the measurements were carried out at 37° C., and the mobile phase buffer contained 10 mM MES (pH 5.8), 150 mM NaCl and 0.05% TWEEN® 20 (polyoxyethelene sorbitan monolaurate). The pH-dependent binding clones were injected therein under the condition of pH 7.4 and allowed to bind to SR344 (injection sample buffer: 10 mM MES (pH 7.4), 150 mM NaCl, 0.05% TWEEN® 20 (polyoxyethelene sorbitan monolaurate)), and the pH-dependent dissociation of each clone at the mobile phase pH of 5.8 was observed (FIG. 10).
(§2) The dissociation rate […]) at pH 5.8 was calculated using Biacore T100™ Evaluation Software (GE Healthcare) by fitting only the dissociation phase at pH 5.8, where 0.5 μg/mL of the sample was bound in 10 mM MES (pH 7.4), 150 mM NaCl, and 0.05% TWEEN® 20 (polyoxyethelene sorbitan monolaurate), and dissociated in 10 mM MES (pH 5.8), 150 mM NaCl, and 0.05% TWEEN® 20 (polyoxyethelene sorbitan monolaurate). Similarly, the dissociation rate (kd(1/s)) at pH 7.4 was calculated using Biacore T100™ Evaluation Software (GE Healthcare) by fitting only the dissociation phase at pH 7.4, where 0.5 μg/mL of the sample was bound in 10 mM MES (pH 7.4), 150 mM NaCl, and 0.05% TWEEN® 20 (polyoxyethelene sorbitan monolaurate), and dissociated in 10 mM MES (pH 7.4), 150 mM NaCl, and 0.05% TWEEN® 20 (polyoxyethelene sorbitan monolaurate).

[2] = target: T1, recombinant soluble human IL-6 receptor …; assay: SPR Biacore T100, biotinylated SR344 on streptavidin chip (model of membrane-type IL-6 receptor), antibody as analyte, bound at pH 7.4, dissociation at pH 7.4, 37 C
[3] = target: T1, recombinant soluble human IL-6 receptor …; assay: SPR Biacore T100, biotinylated SR344 on streptavidin chip (model of membrane IL-6 receptor), antibody 0.5 ug/mL as analyte, bound at pH 7.4, dissociation at pH 7.4, 37 C
Description: as §1, §2

[4] = target: T1, recombinant soluble human IL-6 receptor …; assay: SPR Biacore T100, biotinylated SR344 on streptavidin chip (model of membrane-type IL-6 receptor), antibody as analyte, bound at pH 7.4, dissociation at pH 5.8, 37 C
Description: (§3) Binding to the membrane-type IL-6 receptor was evaluated by evaluating binding to the IL-6 receptor immobilized on a sensor chip. SR344 was biotinylated in accordance with a method known among persons with ordinary skill in the art, and the biotinylated SR344 was immobilized on the sensor chip via streptavidin using the affinity between streptavidin and biotin. All the measurements were carried out at 37° C. The mobile phase buffer was 10 mM MES (pH 5.8), 150 mM NaCl and 0.05% TWEEN® 20 (polyoxyethelene sorbitan monolaurate).
(§4) The pH-dependently-binding clones were injected under the condition of pH 7.4 to allow them to bind to SR344, and then, the pH-dependent dissociation of each clone at the pH of the mobile phase, pH 5.8, was observed. The results are shown in FIG. 21 (results for Fv1-M71, Fv1-M73, Fv3-M71, and Fv3-M73 are shown in FIG. 21, while results for other clones are shown in FIGS. 17 and 19). Analyses were carried out in the same manner as in Example 10 and the pH dependencies of the dissociation rate constants of all of the eleven types of clones are shown in Table 12.

[5] = target: T1, recombinant soluble human IL-6 receptor …; assay: SPR Biacore T100, biotinylated SR344 on streptavidin chip (model of membrane-type IL-6 receptor), antibody as analyte, bound at pH 7.4, dissociation at pH 7.4, 37 C; remark: listed apart in the source
Description: as §3, §4

[6] = target: T1, recombinant soluble human IL-6 receptor …; assay: SPR Biacore T100, antibody on protein A/G chip, SR344 analyte, 37 C
Description: Kinetic analyses of antigen-antibody reactions at pH 5.8 and pH 7.4 were carried out using a Biacore™ T100 surface plasmon resonance system (GE Healthcare) on the four antibodies: humanized PM1 antibody (WT) and H3pI/L73, CLH5/L73, and H170/L82 produced in Examples 2 and 4 (buffer: 10 mM MES (pH 7.4 or pH 5.8), 150 mM NaCl, and 0.05% TWEEN® 20 (polyoxyethelene sorbitan monolaurate)). Various antibodies were bound onto a sensor chip immobilized with recomb-protein A/G (Pierce) by amine coupling. SR344 adjusted to concentrations of 9.8 to 400 nM was injected to the chip as an analyte. […] All the measurements were carried out at 37° C. Association rate constants kₐ (1/Ms) and dissociation rate constants kd (1/s) were calculated using Biacore T100™ Evaluation Software (GE Healthcare), and dissociation constants KD (M) were calculated on the basis of those values (Table 5). Moreover, the ratio of the affinities at pH 5.8 and pH 7.4 were calculated for each clone to evaluate pH-dependent binding. All the measurements were carried out at 37° C.

Binder | kd ratio pH 5.8/pH 7.4 [1] | koff [2] | koff [3] | koff [4] | koff [5] | pH-dependent binding (affinity ratio) relative to WT [6]
humanized PM1 antibody (wild type, WT) (antibody, human IgG1, kappa, V domains shown, IgG1; also called WT-IgG1; wild type humanized anti-IL-6 receptor antibody) VH: QVQLQESGPGLVRPSQTLSLTCTVSGYSITSDHAWSWVRQPPGRGLEWIGYISYSGITTYNPSLKSRVTMLRDTSKNQFSLRLSSVTAADTAVYYCARSLARTTAMDYWGQGSLVTVSS VL: DIQMTQSPSSLSASVGDRVTITCRASQDISSYLNWYQQKPGKAPKLLIYYTSRLHSGVPSRFSGSGSGTDFTFTISSLQPEDIATYYCQQGNTLPYTFGQGTKVEIKR | 1.5 | 0.00025 s⁻¹ | 0.000484 s⁻¹ | – | – | –
Fv4-IgG1 (antibody, VH3-IgG1 / VL3-CK) heavy: not shown light: DIQMTQSPSSLSASVGDSVTITCQASTDISSHLNWYQQKPGKAPELLIYYGSHLLSGVPSRFSGSGSGTDFTFTISSLEAEDAATYYCGQGNRLPYTFGQGTKVEIERTVAAPSVFIFPPSDEQLKSGTASVVCLLNNFYPREAKVQWKVDNALQSGNSQESVTEQDSKDSTYSLSSTLTLSKADYEKHKVYACEVTHQGLSSPVTKSFNRGEC | – | 0.00047 s⁻¹ | – | 0.0026 s⁻¹ | 0.00047 s⁻¹ | –
H3pI/L73 (antibody, IgG1, V domains shown, tested as IgG1; also called H3pI/L73-IgG1; H3pl/L73) VH: QVQLQESGPGLVKPSETLSLTCAVSGHSISHDHAHSWVRQPPGEGLEWIGYISYSGITNYNPSLKGRVTISRDTSKNQFSLKLSSVTAADTAAYYCARSLARTTAMDYWGEGTLVTVSS VL: DIQMTQSPSSLSASVGDSVTITCQASQHISSHLNWYQQKPGKAPELLIYYGSHLHSGVPSRFSGSGSGTDFTFTISSLEAEDAATYYCGQGNRLPYTFGQGTKVEIE | 11 | 0.00026 s⁻¹ | 0.000344 s⁻¹ | – | – | 15 fold
H170/L82 (antibody, IgG1, V domains shown, expressed and purified as IgG (IgG1); also called H170/L82-IgG1) VH: QVQLQESGPGLVKPSETLSLTCAVSGHSISHHHAHSWVRQPPGEGLEWIGYISYSGITHYNPHLKGRVTISRDTSKNQFSLKLSSVTAADTAAYYCARVLARITAMDHWGEGTLVTVSS VL: DIQMTQSPSSLSASVGDSVTITCQASQDISSHLNWYQQKPGKAPELLIYYGSHLHSGVPSRFSGSGSGTDFTFTISSLEAEDAATYYCGQGNRLPYTFGQGTKVEIE | 1.9 | – | 0.00077 s⁻¹ | – | – | > 15 fold
